Assay results from publication PMC7790537.

Columns and labels:
[1] = target: recombinant trimeric HA of A/New Caledonia/20/1999 (H1N1) (influenza A virus A/New Caledonia/20/1999 (H1N1)) (UniProt Q6WG00)
[2] = target: recombinant trimeric HA of A/Victoria/210/2009 (H3N2) (influenza A virus A/Victoria/210/2009 (H3N2))

Fab-deficient (ΔFab) IgA2m2 polymer (from UniProt P01591 23-159) (complex)
> 500 µg/mL: HI activity, minimum HI concentration, NC20 virus [1] | HI activity, minimum HI concentration, Vic210 virus [2] | NT activity, minimum virus-neutralizing concentration, Vic210 virus [2]

Fab-deficient (ΔFab) IgA1 polymer (from UniProt P01591 23-159) (complex)
> 500 µg/mL: HI activity, minimum HI concentration, NC20 virus [1] | HI activity, minimum HI concentration, Vic210 virus [2] | NT activity, minimum virus-neutralizing concentration, Vic210 virus [2]
